Where only a bound is given, the exact number is not on record here.

The target in assay [1] is recombinant human coagulation factor IX (human) (UniProt P00740). Put plainly: cell-based or functional assay.
For assay [2], the target named is T1, recombinant human coagulation factor IX (human, UniProt P00740 47-461).
T1 construct: also called FIX; human FIX
As to the kind of experiment: SPR, FIX immobilized on the sensor, knob in solution. In general terms: SPR reads the build-up and loss of mass on a sensor chip optically.

Chain of recombinant human coagulation factor IX (human) (P00740 47-461 limits assumed): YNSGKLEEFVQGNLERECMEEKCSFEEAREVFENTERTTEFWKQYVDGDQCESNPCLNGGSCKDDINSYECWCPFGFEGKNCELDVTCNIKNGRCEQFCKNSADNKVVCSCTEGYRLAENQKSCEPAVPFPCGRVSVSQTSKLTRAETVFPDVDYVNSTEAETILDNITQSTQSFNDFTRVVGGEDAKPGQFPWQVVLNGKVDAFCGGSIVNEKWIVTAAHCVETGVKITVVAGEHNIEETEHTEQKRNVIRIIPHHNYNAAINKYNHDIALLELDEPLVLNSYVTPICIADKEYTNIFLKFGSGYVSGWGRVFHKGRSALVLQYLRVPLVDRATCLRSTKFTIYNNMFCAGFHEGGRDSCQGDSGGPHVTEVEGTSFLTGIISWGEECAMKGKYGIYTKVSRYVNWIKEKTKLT
T1 sequence (P00740 47-461 limits assumed): as above

Regarding “Ad5/35L virus (Ad5 capsid, long Ad5 fiber shaft, Ad35 fiber knob domain) (from UniProt P11818 1-399)”, the reporter gene activities in HSPG-expressing CHO-K1 cells infected with FIX compared to infection without FIX in assay [1] was above 45 fold. Consider “Ad5F* virus (long-shafted Ad5-based vector, fiber knob aa 477 Y to A, C-terminal 6-His) (from UniProt P11818 1-581)”, for which, in assay [1], the reporter gene activities in HSPG-expressing CHO-K1 cells infected with FIX compared to infection without FIX is above 45 fold and the transduction of primary human hepatocytes (luciferase activity) with FIX compared to without was above 14 fold.

B1: purified recombinant Ad5 fiber knob domain (other)
chain: DKLTLWTTPAPSPNCRLNAEKDAKLTLVLTKCGSQILATVSVLAVKGSLAPISGTVQSAHLIIRFDENGVLLNNSFLDPEYWNFRNGDLTEGTAYTNAVGFMPNLSAYPKSHGKTAKSNIVSQVYLNGDKTKPVTLTITLNGTQETGDTTPSAYSMSFSWDWSGHNYINEIFATSSYTFSYIAQE
notes: also called Ad5 knob
B1: the binding result in assay [2] is “binds”.

B2: purified recombinant Ad35 fiber knob domain (other)
chain: SINTLWTGINPPPNCQIVENTNTNDGKLTLVLVKNGGLVNGYVSLVGVSDTVNQMFTQKTANIQLRLYFDSSGNLLTEESDLKIPLKNKSSTATSETVASSKAFMPSTTAYPFNTTTRDSENYIHGICYYMTSYDRSLFPLNISIMLNSRMISSNVAYAIQFEWNLNASESPESNIATLTTSPFFFSYITEDDN
notes: also called Ad35 knob; biotin-conjugated Ad35 fiber knob domain
In the case of B2, the binding result in assay [2] is on record as “binds”.

Values taken from patent US20060281090A1 (University of Washington, published 2006).
